PMC6445123 (Scientific Reports, 2019)

T1: recombinant active Casp6 (Casp6-WT) (Homo sapiens, UniProt P55212, INS179NQTEKLDTNITEVD)
T1 construct: generating mainly large subunit with a linker (LS-L), small subunit (SS), and a minor amount of large subunit (LS); His (C); made in house; host or cells: E. coli BL21(DE3)pLysS
T1 sequence (P55212 24-193 limits assumed): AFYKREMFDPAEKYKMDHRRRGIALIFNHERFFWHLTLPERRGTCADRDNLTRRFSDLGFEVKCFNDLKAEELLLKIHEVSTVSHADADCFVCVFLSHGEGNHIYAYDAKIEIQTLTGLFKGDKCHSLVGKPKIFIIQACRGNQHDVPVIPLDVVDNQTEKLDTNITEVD
T1 sequence (P55212 194-293 limits assumed): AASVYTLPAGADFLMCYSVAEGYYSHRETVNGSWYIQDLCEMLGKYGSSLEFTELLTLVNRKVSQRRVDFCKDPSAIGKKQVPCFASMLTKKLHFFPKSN

T2: recombinant active Casp6 (Homo sapiens, UniProt P55212, INS179NQTEKLDTNITEVD)
T2 construct: generating mainly large subunit with a linker (LS-L), small subunit (SS), and a minor amount of large subunit (LS); His (C); made in house; host or cells: E. coli BL21(DE3)pLysS
T2 sequence (P55212 24-193 limits assumed): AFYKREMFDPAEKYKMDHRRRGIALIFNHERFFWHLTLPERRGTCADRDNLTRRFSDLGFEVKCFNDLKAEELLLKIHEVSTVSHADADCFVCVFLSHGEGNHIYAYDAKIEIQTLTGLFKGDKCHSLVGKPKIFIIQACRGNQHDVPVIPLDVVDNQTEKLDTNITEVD
T2 sequence (P55212 194-293 limits assumed): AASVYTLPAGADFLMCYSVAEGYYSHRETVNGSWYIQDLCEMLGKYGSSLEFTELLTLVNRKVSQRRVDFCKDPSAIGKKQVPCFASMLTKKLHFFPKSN

T3: Casp6-E35K large subunit with linker (LS-L) (human, UniProt P55212 24-193, E35K)
T3 construct: human Caspase-6, large subunit with linker (LS-L) left after complete self-processing at TETD23 and TEVD193; a minor amount is also cut at DVVD179 (LS); rare natural SNP variant E35K; source: E. coli BL21(DE3)pLysS, self-processed from full-length Casp6-E35K, purified
T3 sequence (looked up): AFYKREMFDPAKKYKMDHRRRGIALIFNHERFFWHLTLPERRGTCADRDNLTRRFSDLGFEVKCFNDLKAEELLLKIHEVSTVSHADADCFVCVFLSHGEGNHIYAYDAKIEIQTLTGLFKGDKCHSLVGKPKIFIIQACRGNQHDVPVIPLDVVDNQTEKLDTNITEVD


Tests used:
[1] = target: T1, recombinant active Casp6 (Casp6-WT); experiment: Fluorescence-based Ac-VEID-AFC cleavage assay (Casp6 activity, IC50 determination); assay type: biochemical; conditions: 10 µM Ac-VEID-AFC; for % Inhibition with 100 µM compound (fluorescence assay): 20 nM Casp6, relative to 1% DMSO control; for IC50: fluorescence assay, 20 nM Casp6 active sites, read-out: IC50
Protocol: (§1) To assess the potency of in silico hits, a fluorescence-based Ac-VEID-AFC cleavage assay was used to measure recombinant active Casp6 reaction rate in the absence or presence of 100 µM concentration of compounds. A 30% inhibition cut off was arbitrarily chosen for further investigation of putative inhibitors. […] AFC signal interference by compound intrinsic fluorescence was ruled out (Fig. S4). Casp6 inhibition was confirmed for seven compounds (C7, C13, C14, S2, S10, S11 and S13) using a colorimetric Ac-VEID-pNA cleavage assay (Table 2, Fig. S3).
(§2) Casp6 active sites were quantified using zVAD-FMK (N-benzyloxycarbonyl-Val-Ala-Asp-(O-methyl)-fluoromethylketone, MP Biomedicals, Santa Ana, CA, USA)[51],[64]. Casp6 activity was measured in Stennicke’s buffer (SB: 20 mM piperazine-N,N′-bis-(2-ethanesulfonic acid) pH 7.2, 100 mM NaCl, 10 mM DTT, 1 mM EDTA, 0.1% 3-[(3-cholamidopropyl)-dimethylammonio]-2-hydroxy-1-propanesulfonic acid, 10% sucrose)[65] using 40 µM Ac-VEID-AFC (Ac-Val-Glu-Ile-Asp-7-Amino-4-trifluoromethylcoumarin, Enzo Life Sciences, Farmingdale, NY, USA)[64] and 10-250 nM active site titrated Casp6. Reactions were initiated by Ac-VEID-AFC addition and followed for 20 min at 37 °C in a black clear bottom 96-well microplate (Costar, Corning, NY, USA) in Synergy H4 Hybrid instrument (BioTek, Winooski, VT, USA) with excitation/emission at 380/505 nm. Released AFC was calculated from AFC standard curve (0-25 µM). Casp6 VEIDase activity (released pmol AFC/min) was calculated from the initial linear reaction part. Ac-VEID-AFC hydrolysis initial velocities were measured with 10 nM active-site titrated Casp6 and […] Ac-VEID-AFC. Initial velocities v versus substrate concentration [S] were fit to a rectangular hyperbola using Michaelis-Menten equation in GraphPad Prism 5 (GraphPad Software, La Jolla, CA, USA).
(§3) In fluorescence-based Casp6 activity assay, 10 µM Ac-VEID-AFC was added to 20 nM Casp6 in SB with 100 μM compound and 1% dimethyl sulfoxide (DMSO), and reaction rate was measured for 20 min at 37 °C as above. Compound potency was calculated by normalising Ac-VEID-AFC cleavage rate to 1% DMSO control. In colorimetric Casp6 activity assay, 200 µM Ac-VEID-pNA (N-acetyl-Val-Glu-Ile-Asp-p-nitroanilide, Enzo Life Sciences) was added to 200 nM Casp6 in SB with 100 μM compound, and Ac-VEID-pNA cleavage rate was measured at 37 °C for 30 min in clear 96-well plate (Sartstedt, Nümbrecht, Germany) using Synergy H4 plate reader at 405 nm. Absorbance was converted to the released pNA amount based on a standard curve of 0–250 µM pNA. Cleavage rates were calculated from the linear assay phase and were normalised to 1% DMSO control. In Casp6-C163A cleavage assay, 0.5 ng/µl Casp6-WT was preincubated with 100 µM inhibitor, 5 µM Q-VD-OPh or 1% DMSO in SB (30 min, RT), followed by transfer on ice, addition of 0.5 µg/µl Casp6-C163A, and incubation (37 °C, 5, 10 and 15 min). Reactions were stopped by adding SDS-PAGE sample buffer (62.5 mM Tris pH 6.8, 2% SDS, 0.1 M DTT, 0.01% Bromphenol Blue, 10% glycerol) and heating (5 min, 95 °C). Samples (2 µl) were analysed on 15% SDS-PAGE gels, proteins were stained with Coomassie blue, and gels were de-stained with 10% acetic acid. The intensities of protein bands were quantified from scanned gels using ImageJ. The band intensity of Casp6-C163A without a prodomain was plotted against the time and the Casp6-C163A cleavage rates were calculated from the slopes of linear plots. The % activity of Casp6-WT in the presence of inhibitors was calculated relative to DMSO control.
IC50 values were determined against 20 nM Casp6 active sites in fluorescence-based Casp6 activity assay with 10 µM Ac-VEID-AFC and 1 nM-500 µM inhibitor. IC50 was calculated with GraphPad Prism 5 by a nonlinear regression fit for log inhibitor vs relative Casp6 activity (% DMSO control) using a Hill slope of – 1, and top and bottom constraints of 100 and 0, respectively.

recombinant active Casp6 = target: T2, recombinant active Casp6; experiment: Colorimetric Ac-VEID-pNA cleavage assay; assay type: biochemical; conditions: 200 µM Ac-VEID-pNA, 200 nM Casp6
Protocol: as §1, §3

[2] = target: the molecule itself; experiment: crystal structure; apo, fully processed Casp6 variant; crystals from 100 mM sodium acetate pH 4.6, 2 M sodium chloride, hanging drop vapour diffusion at 22 °C
[3] = Ac-VEID-AFC hydrolysis kinetics of recombinant Casp6 variants (Michaelis-Menten); assay type: biochemical, human; conditions: Ac-VEID-AFC hydrolysis, mean ± SD
Description: In this study, we investigated how naturally occurring rare missense variants of human CASP6 affect Casp6 activity and structure. […] A34, E35, A109, and T182 are not conserved in 12 human caspases and in Casp6 from different species (Fig. 1a,b). Recombinant Casp6-WT and the four variants were expressed in E. coli, purified, and active site titrated (Fig. S2) for functional analyses. Like Casp6-WT, Casp6 variants, underwent complete self-processing at TETD23, and TEVD193 sites, and slight self-cleavage at the DVVD179 site, generating mainly large subunit with a linker (LS-L), small subunit (SS), and a minor amount of large subunit (LS) (Fig. 1c,d).
as §2

[4] = target: T3, Casp6-E35K large subunit with linker …; experiment: crystal structure; apo, fully processed Casp6 variant; crystals from 100 mM sodium acetate pH 4.6, 2 M sodium chloride, hanging drop vapour diffusion at 22 °C; conditions: both partners purified

| Molecule | % Inhibition with 100 µM compound (fluorescence assay) [1] | IC50 [1] | % Inhibition with 100 µM compound (colorimetric assay) (recombinant active Casp6) | Km [3] | kcat [3] | other results |
| --- | --- | --- | --- | --- | --- | --- |
| Nc1nc2c(s1)C(c1ccc(OCc3cccc(F)c3)cc1)CC(=O)N2 (stereo not shown) [Compound S11] | 30.0 ± 6.0% | 289 ± 60.9 µM | 56.3 ± 2.3% |  |  |  |
| Cc1nn(-c2ccccc2)c2c1C(c1cccc(OCc3ccccc3)c1)C(C#N)=C(N)O2 (stereo not shown) [Compound S13] | 33.8 ± 12.1% | 159 ± 27.7 µM | 41.9 ± 8.2% |  |  |  |
| O=C(Cn1cc(/C=C2/C(=O)NC(=O)N(Cc3ccco3)C2=O)c2ccccc21)NCC1CCCO1 (stereo not shown) [Compound S10] | 59.7 ± 3.8% | 30.2 ± 6.8 µM | 42.6 ± 3.4% |  |  |  |
| Casp6-E35K, fully processed (mature, apo) (complex, human, human Caspase-6, large subunit with linker (LS-L) left after complete self-processing at TETD23 and TEVD193; a minor amount is also cut at DVVD179 (LS); rare natural SNP variant E35K; human Caspase-6, small subunit (SS) left after self-processing at TEVD193; One protomer (LS-L plus SS); two protomers form the dimer seen in the crystal; That the His tag sits on the small subunit is surmised from …) chain 1: AFYKREMFDPAKKYKMDHRRRGIALIFNHERFFWHLTLPERRGTCADRDNLTRRFSDLGFEVKCFNDLKAEELLLKIHEVSTVSHADADCFVCVFLSHGEGNHIYAYDAKIEIQTLTGLFKGDKCHSLVGKPKIFIIQACRGNQHDVPVIPLDVVDNQTEKLDTNITEVD chain 2: AASVYTLPAGADFLMCYSVAEGYYSHRETVNGSWYIQDLCEMLGKYGSSLEFTELLTLVNRKVSQRRVDFCKDPSAIGKKQVPCFASMLTKKLHFFPKSN |  |  |  |  |  | binding result [2]: binds |
| Casp6-A109T: recombinant rare natural human Casp6 missense variant A109T (protein, left off: His (from the plasmid name pET23b-Casp6-His), end not stated, state not stated) chain 1: AFYKREMFDPAEKYKMDHRRRGIALIFNHERFFWHLTLPERRGTCADRDNLTRRFSDLGFEVKCFNDLKAEELLLKIHEVSTVSHTDADCFVCVFLSHGEGNHIYAYDAKIEIQTLTGLFKGDKCHSLVGKPKIFIIQACRGNQHDVPVIPLDVVDNQTEKLDTNITEVD chain 2: AASVYTLPAGADFLMCYSVAEGYYSHRETVNGSWYIQDLCEMLGKYGSSLEFTELLTLVNRKVSQRRVDFCKDPSAIGKKQVPCFASMLTKKLHFFPKSN |  |  |  | 34.5 ± 1.8 µM | 2.51 ± 0.16 s⁻¹ |  |
| Casp6 small subunit (SS) from self-processed Casp6 (domain or fragment, human, UniProt P55212 194-293, looked up, human Caspase-6, small subunit (SS) left after self-processing at TEVD193; That the His tag sits on this chain is surmised from the plasmid's name; source: E. coli BL21(DE3)pLysS, self-processed from full-length Casp6 variant, purified) AASVYTLPAGADFLMCYSVAEGYYSHRETVNGSWYIQDLCEMLGKYGSSLEFTELLTLVNRKVSQRRVDFCKDPSAIGKKQVPCFASMLTKKLHFFPKSN |  |  |  |  |  | binding result [4]: binds |
| Casp6-A34E: recombinant rare natural human Casp6 missense variant A34E (protein, UniProt P55212 1-293, looked up, variant A34E) MSSASGLRRGHPAGGEENMTETDAFYKREMFDPEEKYKMDHRRRGIALIFNHERFFWHLTLPERRGTCADRDNLTRRFSDLGFEVKCFNDLKAEELLLKIHEVSTVSHADADCFVCVFLSHGEGNHIYAYDAKIEIQTLTGLFKGDKCHSLVGKPKIFIIQACRGNQHDVPVIPLDVVDNQTEKLDTNITEVDAASVYTLPAGADFLMCYSVAEGYYSHRETVNGSWYIQDLCEMLGKYGSSLEFTELLTLVNRKVSQRRVDFCKDPSAIGKKQVPCFASMLTKKLHFFPKSN |  |  |  | 22.7 ± 0.8 µM | 2.04 ± 0.10 s⁻¹ |  |
| Casp6-T182S: recombinant rare natural human Casp6 missense variant T182S (protein, UniProt P55212 1-293, looked up, variant T182S) MSSASGLRRGHPAGGEENMTETDAFYKREMFDPAEKYKMDHRRRGIALIFNHERFFWHLTLPERRGTCADRDNLTRRFSDLGFEVKCFNDLKAEELLLKIHEVSTVSHADADCFVCVFLSHGEGNHIYAYDAKIEIQTLTGLFKGDKCHSLVGKPKIFIIQACRGNQHDVPVIPLDVVDNQSEKLDTNITEVDAASVYTLPAGADFLMCYSVAEGYYSHRETVNGSWYIQDLCEMLGKYGSSLEFTELLTLVNRKVSQRRVDFCKDPSAIGKKQVPCFASMLTKKLHFFPKSN |  |  |  | 33.3 ± 1.2 µM | 2.42 ± 0.12 s⁻¹ |  |
| Casp6-K284A: Casp6 K284A alanine mutant from full-length construct, partially self-processed (protein, UniProt P55212 1-293, looked up, variant K284A, full-length, Casp6 K284A alanine mutant from full-length construct, partially self-processed) MSSASGLRRGHPAGGEENMTETDAFYKREMFDPAEKYKMDHRRRGIALIFNHERFFWHLTLPERRGTCADRDNLTRRFSDLGFEVKCFNDLKAEELLLKIHEVSTVSHADADCFVCVFLSHGEGNHIYAYDAKIEIQTLTGLFKGDKCHSLVGKPKIFIIQACRGNQHDVPVIPLDVVDNQTEKLDTNITEVDAASVYTLPAGADFLMCYSVAEGYYSHRETVNGSWYIQDLCEMLGKYGSSLEFTELLTLVNRKVSQRRVDFCKDPSAIGKKQVPCFASMLTAKLHFFPKSN |  |  |  | 32.6 ± 10.8 µM | 2.0 ± 1.5 s⁻¹ |  |
